Test results published in the Immune Epitope Database (IEDB).

How the values were obtained:
HLA-A*01:01 [1] = assay: IEDB peptide-MHC binding, purified MHC/competitive/fluorescence; filed as Kd, often an IC50 or EC50 that approximates it; ≥ and ≤ were set here for values at or beyond the usual limits of such assays; details: source organism: Human immunodeficiency virus 1
HLA-B*15:17 [2] = assay: as above; details: source organism: Human immunodeficiency virus 1
HLA-B*08:01 [3] = assay: as above; details: source organism: Human immunodeficiency virus 1
HLA-B*15:01 [4] = assay: as above
HLA-A*30:01 = assay: as above; details: source organism: Human immunodeficiency virus 1
HLA-B*38:01 [5] = assay: as above; details: source organism: Human immunodeficiency virus 1
HLA-B*15:09 [6] = assay: as above
HLA-B*51:01 = assay: as above; details: source organism: Cryptosporidium parvum Iowa II
HLA-A*29:02 = assay: as above; details: source organism: Cryptosporidium parvum Iowa II
HLA-A*80:01 = assay: as above; details: source organism: Cryptosporidium parvum Iowa II
HLA-B*57:01 [7] = assay: as above; details: source organism: Cryptosporidium parvum Iowa II
HLA-B*39:01 = assay: as above
HLA-B*46:01 [8] = assay: as above; details: source organism: Cryptosporidium parvum Iowa II
HLA-A*26:01 [9] = assay: as above; details: source organism: Cryptosporidium parvum Iowa II
HLA-B*27:03 = assay: as above; details: source organism: Cryptosporidium parvum Iowa II
HLA-B*18:01 = assay: as above; details: source organism: Cryptosporidium parvum Iowa II
HLA-A*26:02 = assay: as above; details: source organism: Orthomarburgvirus marburgense
HLA-B*35:01 = assay: as above; details: source organism: Orthomarburgvirus marburgense
HLA-A*01:01 [10] = assay: IEDB peptide-MHC binding, purified MHC/direct/fluorescence; filed as Kd, often an IC50 or EC50 that approximates it; ≥ and ≤ were set here for values at or beyond the usual limits of such assays
HLA-A*11:01 [11] = assay: as above; details: source organism: Marburg virus - Musoke, Kenya, 1980
HLA-B*48:01 = assay: as above
HLA-B*15:17 [12] = assay: as above
HLA-A*26:03 = assay: as above; details: source organism: Orthomarburgvirus marburgense
HLA-B*08:01 [13] = assay: as above
HLA-B*57:01 [14] = assay: as above
HLA-B*46:01 [15] = assay: as above
HLA-B*15:01 [16] = assay: as above
HLA-B*07:02 = assay: as above; details: source organism: Marburg virus - Musoke, Kenya, 1980
HLA-A*68:02 = assay: as above; details: source organism: Marburg virus - Musoke, Kenya, 1980
HLA-A*69:01 = assay: as above
HLA-A*31:01 = assay: as above
HLA-B*27:05 = assay: as above
HLA-A*02:01 = assay: as above
HLA-B*58:01 = assay: as above
HLA-A*11:01 [17] = assay: IEDB peptide-MHC binding, purified MHC/competitive/fluorescence; filed as Kd, often an IC50 or EC50 that approximates it; ≥ and ≤ were set here for values at or beyond the usual limits of such assays; details: source organism: Rickettsia canadensis
HLA-B*38:01 [18] = assay: IEDB peptide-MHC binding, purified MHC/direct/fluorescence; filed as Kd, often an IC50 or EC50 that approximates it; ≥ and ≤ were set here for values at or beyond the usual limits of such assays; details: source organism: Candidatus Rickettsia tarasevichiae
HLA-A*26:01 [19] = assay: as above; details: source organism: Candidatus Rickettsia tarasevichiae
HLA-B*40:01 = assay: as above; details: source organism: Rickettsia canadensis
HLA-A*03:01 = assay: as above; details: source organism: Rickettsia canadensis
HLA-B*15:09 [20] = assay: as above; details: source organism: Candidatus Rickettsia tarasevichiae
[21] = source organism: Human immunodeficiency virus 1
[22] = source organism: Cryptosporidium parvum Iowa II
[23] = source organism: Orthomarburgvirus marburgense
[24] = source organism: Marburg virus - Musoke, Kenya, 1980
[25] = source organism: Rickettsia canadensis

GSEEIKSLF
Kd (HLA-A*01:01 [1]): ≥ 20 µM
Kd (HLA-B*15:17 [2]): 0.182 µM
Kd (HLA-B*08:01 [3]): ≥ 20 µM
Kd (HLA-B*15:01 [4]; [21]): ≥ 20 µM
Kd (HLA-A*30:01): ≥ 20 µM
Kd (HLA-B*38:01 [5]): ≥ 20 µM
Kd (HLA-B*15:09 [6]; [21]): ≥ 20 µM

KLGDITLFL
Kd (HLA-B*51:01): ≥ 20 µM
Kd (HLA-A*29:02): 0.0341 µM
Kd (HLA-A*80:01): 0.0156 µM
Kd (HLA-B*57:01 [7]): ≥ 20 µM
Kd (HLA-B*39:01; [22]): ≥ 20 µM
Kd (HLA-B*46:01 [8]): ≥ 20 µM
Kd (HLA-B*15:01 [4]; [22]): ≥ 20 µM
Kd (HLA-A*26:01 [9]): ≥ 20 µM
Kd (HLA-B*27:03): ≥ 20 µM
Kd (HLA-B*18:01): ≥ 20 µM

NQECWDSVF
Kd (HLA-A*26:02): 0.384 µM
Kd (HLA-B*39:01; [23]): 0.364 µM
Kd (HLA-B*35:01): 0.216 µM
Kd (HLA-B*15:09 [6]; [23]): 2.52 µM
Kd (HLA-A*01:01 [10]; [24]): ≥ 20 µM
Kd (HLA-A*11:01 [11]): ≥ 20 µM
Kd (HLA-B*48:01; [24]): ≥ 20 µM
Kd (HLA-B*15:17 [12]; [24]): ≥ 20 µM
Kd (HLA-A*26:03): ≥ 20 µM
Kd (HLA-B*08:01 [13]; [23]): ≥ 20 µM
Kd (HLA-B*57:01 [14]; [24]): ≥ 20 µM
Kd (HLA-B*46:01 [15]; [24]): ≥ 20 µM
Kd (HLA-B*15:01 [16]; [24]): 0.373 µM
Kd (HLA-B*07:02): ≥ 20 µM
Kd (HLA-A*68:02): ≥ 20 µM
Kd (HLA-A*69:01; [24]): ≥ 20 µM
Kd (HLA-A*31:01; [24]): ≥ 20 µM
Kd (HLA-B*27:05; [24]): ≥ 20 µM
Kd (HLA-A*02:01; [24]): ≥ 20 µM
Kd (HLA-B*58:01; [24]): ≥ 20 µM

SSEADCFTY
Kd (HLA-A*11:01 [17]): ≥ 20 µM
Kd (HLA-A*01:01 [10]; [25]): 0.0553 µM
Kd (HLA-B*48:01; [25]): ≥ 20 µM
Kd (HLA-B*15:17 [12]; [25]): 0.0816 µM
Kd (HLA-B*08:01 [13]; source organism: Candidatus Rickettsia tarasevichiae): ≥ 20 µM
Kd (HLA-B*57:01 [14]; [25]): ≥ 20 µM
Kd (HLA-B*46:01 [15]; [25]): ≥ 20 µM
Kd (HLA-B*15:01 [16]; [25]): ≥ 20 µM
Kd (HLA-B*38:01 [18]): ≥ 20 µM
Kd (HLA-A*26:01 [19]): ≥ 20 µM
Kd (HLA-B*40:01): ≥ 20 µM
Kd (HLA-A*03:01): ≥ 20 µM
Kd (HLA-A*69:01; [25]): ≥ 20 µM
Kd (HLA-A*31:01; [25]): ≥ 20 µM
Kd (HLA-B*27:05; [25]): ≥ 20 µM
Kd (HLA-A*02:01; [25]): ≥ 20 µM
Kd (HLA-B*15:09 [20]): ≥ 20 µM
Kd (HLA-B*58:01; [25]): ≥ 20 µM
